# Measured values as given in patent US20260258084A1, “New Peptides as Selective IL-23 Receptor Antagonists” (Sanofi, priority 2022, published 2026).
# Starred links: 1 amine or outer side, 2 acyl side, 3 side chain; linkers in the order of their positions; H or OH if unused. Positions of bridges follow the written chain, without caps; N, C: chain ends. Non-standard residues stand in square brackets, D forms with d. Yde = (2S)-2-amino-3-[4-[2-(dimethylamino)ethoxy]phenyl]propanoic acid, CN(C)CCOc1ccc(C[C@H](N[*:1])C(=O)[*:2])cc1; NdmK = (2S)-6-amino-2-(dimethylamino)hexanoic acid, CN(C)[C@@H](CCCCN[*:3])C(=O)[*:2]; Nmha = 6-(methylamino)hexanoic acid, CN(CCCCCC(=O)[*:2])[*:1]; Phe(4-OMe) = COc1ccc(C[C@H](N[*:1])C(=O)[*:2])cc1; Trp(7-Me) = Cc1cccc2c(C[C@H](N)C(=O)O)c[nH]c12; αMeLys(Me2) = CN(C)CCCC[C@](C)(N)C(=O)O; 2Nal = N[C@@H](Cc1ccc2ccccc2c1)C(=O)O; AEF = NCCOc1ccc(C[C@H](N)C(=O)O)cc1; 3Pal = N[C@@H](Cc1cccnc1)C(=O)O; αMeL = CC(C)C[C@](C)(N)C(=O)O; Nmapt = not defined here; Thp = NC1(C(=O)O)CCOCC1; Aib = CC(C)(N)C(=O)O; Ahx = NCCCCCC(=O)O; Ava = NCCCCC(=O)O; βAla = NCCC(=O)O; Sar = CNCC(=O)O
# T1: IL-23 receptor on the surface of HEK-Blue IL-23 cells (UniProt Q5VWK5 24-629, limits assumed)
# T1 sequence (looked up): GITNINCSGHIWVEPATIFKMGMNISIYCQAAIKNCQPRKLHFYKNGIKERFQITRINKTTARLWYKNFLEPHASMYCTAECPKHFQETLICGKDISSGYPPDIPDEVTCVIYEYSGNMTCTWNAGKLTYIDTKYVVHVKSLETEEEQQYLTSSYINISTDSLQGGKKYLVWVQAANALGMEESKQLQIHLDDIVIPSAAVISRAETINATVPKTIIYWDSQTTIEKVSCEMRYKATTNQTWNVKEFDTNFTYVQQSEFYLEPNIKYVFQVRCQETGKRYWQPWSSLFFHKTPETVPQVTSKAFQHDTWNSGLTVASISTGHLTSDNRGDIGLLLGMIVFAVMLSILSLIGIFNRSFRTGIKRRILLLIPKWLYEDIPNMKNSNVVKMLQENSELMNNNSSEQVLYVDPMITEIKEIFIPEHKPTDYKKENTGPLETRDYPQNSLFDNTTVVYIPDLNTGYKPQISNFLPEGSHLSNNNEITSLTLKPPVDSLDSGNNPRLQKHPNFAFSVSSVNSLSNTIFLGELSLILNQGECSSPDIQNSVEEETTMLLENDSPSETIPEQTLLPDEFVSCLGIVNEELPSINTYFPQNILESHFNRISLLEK
# B1: Compound of SEQ ID NO: 44 (peptide)
# peptide: [Nmapt]CKWQC[AEF][2Nal][αMeL]EA[dL]-NH2
# modifications: lactam N-10; disulfide 2-6; not fully specified (residue 3); printed as Nmapt(§1)-C(§3)(@2)-K[aAc](@3)-W-Q-C(@2)-Yae-Nal-Mle-E(§1)-A-(D-Leu)-NH2; reading uncertain; also: Cys2 carboxyl joined to Lys3 epsilon-NH2 (isopeptide bond)
# B2: Compound of SEQ ID NO: 39 (peptide)
# peptide: [Ahx]E[Ava]WQT[Phe(4-OMe)][2Nal][Aib]DNN-NH2
# modifications: lactam N-10; ester 2-6
# SMILES: COc1ccc(C[C@@H]2NC(=O)[C@H]3NC(=O)[C@H](CCC(N)=O)NC(=O)[C@H](Cc4c[nH]c5ccccc45)NC(=O)CCCCNC(=O)[C@H](CCC(=O)O[C@@H]3C)NC(=O)CCCCCNC(=O)C[C@@H](C(=O)N[C@@H](CC(N)=O)C(=O)N[C@@H](CC(N)=O)C(N)=O)NC(=O)C(C)(C)NC(=O)[C@H](Cc3ccc4ccccc4c3)NC2=O)cc1
# B3: Compound of SEQ ID NO: 43 (peptide)
# peptide: [Ava]CNT[Trp(7-Me)]QC[Yde][2Nal][Aib]ESH-NH2
# modifications: lactam N-11; disulfide 2-7
# SMILES: Cc1cccc2c(C[C@@H]3NC(=O)[C@H]([C@@H](C)O)NC(=O)[C@H](CC(N)=O)NC(=O)[C@@H]4CSSC[C@H](NC(=O)[C@H](CCC(N)=O)NC3=O)C(=O)N[C@@H](Cc3ccc(OCCN(C)C)cc3)C(=O)N[C@@H](Cc3ccc5ccccc5c3)C(=O)NC(C)(C)C(=O)N[C@H](C(=O)N[C@@H](CO)C(=O)N[C@@H](Cc3c[nH]cn3)C(N)=O)CCC(=O)NCCCCC(=O)N4)c[nH]c12
# B4: Compound of SEQ ID NO: 47 (peptide)
# peptide: [Ava]CNT[Trp(7-Me)]K(Ac)C[Yde][2Nal][αMeL]ENH[Sar]-NH2
# modifications: lactam N-11; disulfide 2-7
# SMILES: CC(=O)NCCCC[C@@H]1NC(=O)[C@H](Cc2c[nH]c3c(C)cccc23)NC(=O)[C@H]([C@@H](C)O)NC(=O)[C@H](CC(N)=O)NC(=O)[C@@H]2CSSC[C@H](NC1=O)C(=O)N[C@@H](Cc1ccc(OCCN(C)C)cc1)C(=O)N[C@@H](Cc1ccc3ccccc3c1)C(=O)N[C@@](C)(CC(C)C)C(=O)N[C@H](C(=O)N[C@@H](CC(N)=O)C(=O)N[C@@H](Cc1c[nH]cn1)C(=O)N(C)CC(N)=O)CCC(=O)NCCCCC(=O)N2
# B5: Compound of SEQ ID NO: 57 (peptide)
# peptide: [Ava]CNTWQC[Yde][2Nal][Aib]ENNI-NH2
# modifications: lactam N-11; disulfide 2-7
# SMILES: CC[C@H](C)[C@H](NC(=O)[C@H](CC(N)=O)NC(=O)[C@H](CC(N)=O)NC(=O)[C@@H]1CCC(=O)NCCCCC(=O)N[C@H]2CSSC[C@H](NC(=O)[C@H](CCC(N)=O)NC(=O)[C@H](Cc3c[nH]c4ccccc34)NC(=O)[C@H]([C@@H](C)O)NC(=O)[C@H](CC(N)=O)NC2=O)C(=O)N[C@@H](Cc2ccc(OCCN(C)C)cc2)C(=O)N[C@@H](Cc2ccc3ccccc3c2)C(=O)NC(C)(C)C(=O)N1)C(N)=O
# notes: §1 lactam bridge; @2 disulfide bridge
# B6: Compound of SEQ ID NO: 48 (peptide)
# peptide: [Ava]CNT[Trp(7-Me)]K(Ac)C[Yde][2Nal][Aib]ENH[βAla]-NH2
# modifications: lactam N-11; disulfide 2-7
# SMILES: CC(=O)NCCCC[C@@H]1NC(=O)[C@H](Cc2c[nH]c3c(C)cccc23)NC(=O)[C@H]([C@@H](C)O)NC(=O)[C@H](CC(N)=O)NC(=O)[C@@H]2CSSC[C@H](NC1=O)C(=O)N[C@@H](Cc1ccc(OCCN(C)C)cc1)C(=O)N[C@@H](Cc1ccc3ccccc3c1)C(=O)NC(C)(C)C(=O)N[C@H](C(=O)N[C@@H](CC(N)=O)C(=O)N[C@@H](Cc1c[nH]cn1)C(=O)NCCC(N)=O)CCC(=O)NCCCCC(=O)N2
# B7: Compound of SEQ ID NO: 46 (peptide)
# peptide: [Ava]CNT[Trp(7-Me)]K(Ac)C[Yde][2Nal][Thp]ENH[Sar]-NH2
# modifications: lactam N-11; disulfide 2-7
# SMILES: CC(=O)NCCCC[C@@H]1NC(=O)[C@H](Cc2c[nH]c3c(C)cccc23)NC(=O)[C@H]([C@@H](C)O)NC(=O)[C@H](CC(N)=O)NC(=O)[C@@H]2CSSC[C@H](NC1=O)C(=O)N[C@@H](Cc1ccc(OCCN(C)C)cc1)C(=O)N[C@@H](Cc1ccc3ccccc3c1)C(=O)NC1(CCOCC1)C(=O)N[C@H](C(=O)N[C@@H](CC(N)=O)C(=O)N[C@@H](Cc1c[nH]cn1)C(=O)N(C)CC(N)=O)CCC(=O)NCCCCC(=O)N2
# B8: Compound of SEQ ID NO: 45 (peptide)
# peptide: [Ava]CNT[Trp(7-Me)]K(Ac)C[Yde][2Nal][Aib]ENH[Sar]-NH2
# modifications: lactam N-11; disulfide 2-7
# SMILES: CC(=O)NCCCC[C@@H]1NC(=O)[C@H](Cc2c[nH]c3c(C)cccc23)NC(=O)[C@H]([C@@H](C)O)NC(=O)[C@H](CC(N)=O)NC(=O)[C@@H]2CSSC[C@H](NC1=O)C(=O)N[C@@H](Cc1ccc(OCCN(C)C)cc1)C(=O)N[C@@H](Cc1ccc3ccccc3c1)C(=O)NC(C)(C)C(=O)N[C@H](C(=O)N[C@@H](CC(N)=O)C(=O)N[C@@H](Cc1c[nH]cn1)C(=O)N(C)CC(N)=O)CCC(=O)NCCCCC(=O)N2
# B9: Compound of SEQ ID NO: 40 (peptide)
# peptide: [Nmha]CNTWQC[Yde][2Nal][αMeL]DN[dL]-NH2
# modifications: lactam N-11; disulfide 2-7
# SMILES: CC(C)C[C@@H](NC(=O)[C@H](CC(N)=O)NC(=O)[C@@H]1CC(=O)N(C)CCCCCC(=O)N[C@H]2CSSC[C@H](NC(=O)[C@H](CCC(N)=O)NC(=O)[C@H](Cc3c[nH]c4ccccc34)NC(=O)[C@H]([C@@H](C)O)NC(=O)[C@H](CC(N)=O)NC2=O)C(=O)N[C@@H](Cc2ccc(OCCN(C)C)cc2)C(=O)N[C@@H](Cc2ccc3ccccc3c2)C(=O)N[C@@](C)(CC(C)C)C(=O)N1)C(N)=O
# B10: Compound of SEQ ID NO: 4 (peptide)
# peptide: [Ava]CNTWQC[Phe(4-OMe)][2Nal][Aib]ENG-NH2
# modifications: lactam N-11; disulfide 2-7
# SMILES: COc1ccc(C[C@@H]2NC(=O)[C@@H]3CSSC[C@H](NC(=O)CCCCNC(=O)CC[C@@H](C(=O)N[C@@H](CC(N)=O)C(=O)NCC(N)=O)NC(=O)C(C)(C)NC(=O)[C@H](Cc4ccc5ccccc5c4)NC2=O)C(=O)N[C@@H](CC(N)=O)C(=O)N[C@@H]([C@@H](C)O)C(=O)N[C@@H](Cc2c[nH]c4ccccc24)C(=O)N[C@@H](CCC(N)=O)C(=O)N3)cc1
# Target: T1, IL-23 receptor on the surface of …
# Test: cell-based or functional assay
row,pSTAT3 (nM),Binder
1,42.5,B1
2,26.4,B2
3,1.31,B3
4,0.57,B4
5,11.9,"[Ava]CNTWK(Ac)C[Yde][2Nal][Aib]ENNI-NH2 (lactam N-11; disulfide 2-7; also: places amidation at position 13, §1 lactam bridge; @2 disulfide bridge) [Compound of SEQ ID NO: 38]"
6,5.5,B5
7,0.6,B6
8,13.9,[Ava]C[NdmK]WK(Ac)C[Yde][2Nal][αMeLys(Me2)]EN[3Pal][Sar]-NH2 (lactam N-10; disulfide 2-6) [Compound of SEQ ID NO: 36]
9,2,[Ava]CNTWK(Ac)C[Yde][2Nal][Aib]EN[3Pal]I-NH2 (lactam N-11; disulfide 2-7; also: places amidation at position 13) [Compound of SEQ ID NO: 37]
10,0.84,B7
11,0.67,B8
12,50.8,B9
13,34.8,B10
